The record followed here is US20230056815A1 (VIELA BIO, published 2023).

Positions count from the first letter of the chain named.

The target in experiment [1] is T1, human soluble FLT3L (recombinant huFLT3L) (human, UniProt P49771 27-184).
T1 construct: extracellular domain; also called rhuFLT3L; hFLT3L
T1 sequence (looked up): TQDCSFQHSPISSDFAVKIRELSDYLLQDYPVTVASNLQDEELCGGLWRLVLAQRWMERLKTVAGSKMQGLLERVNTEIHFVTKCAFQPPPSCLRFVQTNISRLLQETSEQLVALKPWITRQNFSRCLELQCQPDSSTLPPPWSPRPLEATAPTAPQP
Description: Biacore, Fab, kinetic (koff/kon). A general note: Surface plasmon resonance follows binding to a sensor surface in real time, without labels.

Experiment [2] has as its target T1, human soluble FLT3L (recombinant …). Briefly: Biacore, Fab.
The target of experiment [3] is T2, human FLT3L on the cell surface (human, UniProt P49771 27-235).
T2 construct: whole, on cells; The assay field of each row says which cells carried it; also called cell-surface FLT3L; huFLT3L-expressing CHO cells
T2 sequence (looked up): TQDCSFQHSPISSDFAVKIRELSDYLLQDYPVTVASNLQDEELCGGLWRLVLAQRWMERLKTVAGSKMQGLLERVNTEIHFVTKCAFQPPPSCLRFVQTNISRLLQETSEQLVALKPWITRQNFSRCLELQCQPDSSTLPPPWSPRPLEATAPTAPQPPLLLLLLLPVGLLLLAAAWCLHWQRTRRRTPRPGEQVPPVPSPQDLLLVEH
Briefly: flow cytometry on CHO cells expressing full-length human FLT3L, PE anti-hu IgG. On the procedure:
(§1) Consistent with this, cell surface binding to human, cyno, and mouse FLT3L was evaluated by transfecting Chinese hamster ovary (CHO) cells with the respective full-length protein for each species. Candidate clones were incubated with FLT3L-expressing cell lines for 1 hour at 4° C. before being washed twice to remove unbound antibody. Cells were then incubated with PE-labeled goat anti-hu IgG secondary detection pAb to quantitate bound antibody which was measured by flow cytometric analysis of PE signal. The huFLT3-Fc construct, on a hu IgG backbone, was used as a positive control reagent for FLT3L expression as it cross reacts with cyno and mouse, in addition to human ligand.
(§2) As differences were apparent in the degree of receptor occupancy for each clone, both EC50 and max occupancy were noted (expressed as percent relative to FLT3-Fc) and taken into account in the final evaluation. Results are shown in Table 4 for human, cyno, and mouse FLT3L expressed in CHO cells.
A general note: A flow cytometer gives signals particle by particle.

Experiment [4] addresses cynomolgus monkey soluble FLT3L (cynomolgus monkey). Description: cell-based or functional assay.
In another experiment the target is T3, mouse soluble FLT3L (mouse, UniProt P49772 27-189).
T3 sequence (looked up): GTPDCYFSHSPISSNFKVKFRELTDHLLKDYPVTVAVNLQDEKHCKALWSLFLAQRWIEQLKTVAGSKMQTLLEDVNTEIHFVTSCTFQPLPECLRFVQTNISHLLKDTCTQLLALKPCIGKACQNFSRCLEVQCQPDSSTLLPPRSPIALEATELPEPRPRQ
Description: cell-based or functional assay.

Experiment [5] concerns the target T1, human soluble FLT3L (recombinant …). Briefly: cell-based or functional assay.
Experiment [6] has as its target T4, mouse FLT3L on CHO cells (mouse, UniProt P49772 27-232).
T4 construct: whole, on cells; also called cell surface mouse FLT3L
T4 sequence (looked up): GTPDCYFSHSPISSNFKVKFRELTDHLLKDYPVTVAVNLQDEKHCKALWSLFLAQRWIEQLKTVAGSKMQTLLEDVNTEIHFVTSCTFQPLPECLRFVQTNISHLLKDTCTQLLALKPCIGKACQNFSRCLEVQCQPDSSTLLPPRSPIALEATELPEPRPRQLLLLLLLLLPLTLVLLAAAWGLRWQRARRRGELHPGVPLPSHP
Description: flow cytometry on CHO cells expressing full-length mouse FLT3L, PE anti-hu IgG. On the procedure: as §1, §2

The target of experiment [7] is T1, human soluble FLT3L (recombinant …). Description: cell-based or functional assay. This is another data set of the same source.
Experiment [8] has as its target T5, recombinant human colony stimulating factor 1 (CSF1) (human, UniProt P09603 33-190, limits assumed).
T5 construct: also called huCSF1; huCSF
T5 sequence (looked up): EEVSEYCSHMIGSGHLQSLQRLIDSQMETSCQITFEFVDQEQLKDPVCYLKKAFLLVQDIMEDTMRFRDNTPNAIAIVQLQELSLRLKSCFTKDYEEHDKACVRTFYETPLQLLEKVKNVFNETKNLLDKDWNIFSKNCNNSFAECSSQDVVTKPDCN
Briefly: ELISA on coated recombinant human CSF1. The protocol:
(§3) To test this, an ELISA plate was coated with 2 µg of recombinant human SCF or CSF1. After washing, the plate was blocked with 3% milk in Tris-Phosphate Buffered Saline (TPBS) and lead antibodies were added in serial (×2) dilution, starting at 50 µg/ml. After incubation, unbound antibody was removed by washing and bound antibody was detected using anti-human IgG-HRP in combination with TMB substrate for color development. Commercially available goat anti-SCF pAb and mouse anti-CSF1 mAb were used as positive binding controls.

Experiment [9] has as its target T6, recombinant human stem cell factor (SCF) (human, UniProt P21583 26-189).
T6 construct: also called huSCF; KIT-ligand
Description: ELISA on coated recombinant human SCF. The protocol: as §3
In general terms: In an ELISA, binding on a coated surface is turned into a signal by an enzyme label.

Experiment [10] concerns the target T4, mouse FLT3L on CHO cells. Description: flow cytometry on CHO cells expressing mouse FLT3L, anti-hu IgG-PE detection. On the procedure: as §1
The target in experiment [11] is T7, cynomolgus monkey FLT3L on CHO cells (cynomolgus monkey).
T7 construct: whole, on cells; also called cell surface cyno FLT3L
Description: flow cytometry on CHO cells expressing full-length cyno FLT3L, PE anti-hu IgG. The protocol: as §1, §2

For experiment [12], the target named is T8, cynomolgus monkey soluble FLT3L (cynomolgus monkey).
T8 construct: extracellular domain; also called cyno sFLT3L; cyno FLT3L
Description: Biacore.

Experiment [13] has as its target T1, human soluble FLT3L (recombinant …). Briefly: Biacore.

T6 sequence (P21583 26-189 limits assumed): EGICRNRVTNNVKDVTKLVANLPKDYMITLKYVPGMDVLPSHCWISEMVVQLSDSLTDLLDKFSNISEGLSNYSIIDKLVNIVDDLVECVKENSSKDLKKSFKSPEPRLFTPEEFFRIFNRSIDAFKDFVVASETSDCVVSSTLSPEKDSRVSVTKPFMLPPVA

B1: Dyax3 Fab (Fab, V domains shown)
VH: EVQLLESGGGLVQPGGSLRLSCAASGFTFSMYEMRWVRQAPGKGLEWVSVIPSGGKTFYADSVKGRFTISRDNSKNTLYLQMNSLRAEDTAVYYCARYSRWFGQLGFYSHYAMDVWSQGTTVTVSS
VL: DIQMTQSPSSLSASVGDRVAITCRASQSIDTYLNWYQQKPGKAPKLLIYAASKLEDGVPSRFSGSGTGTDFTLTIRSLQPEDFASYFCQQSYSSPGITFGPGTKVEIK
In the case of B1, the Kd – broadly, a measure of binding affinity in units of concentration – in experiment [1] amounted to 18.7 nM. Further, in experiment [2], the koff – broadly, the first-order rate constant of dissociation – is 0.00123 s⁻¹ and the kon (as a rule, the rate constant with which the complex forms) is 66000 M⁻¹ s⁻¹.

B2: Dyax5 antibody (IgG1 TM format) (antibody, V domains shown)
VH: EVQLLESGGGLVQPGGSLRLSCAASGFTFSSYIMVWVRQAPGKGLEWVSSIYSSGGSTSYADSVKGRFTISRDNSKNTLYLQMNSLRAEDTAVYYCTRYSRWFGQLGFYSHYAMDVWSQGTTVTVSS
VL: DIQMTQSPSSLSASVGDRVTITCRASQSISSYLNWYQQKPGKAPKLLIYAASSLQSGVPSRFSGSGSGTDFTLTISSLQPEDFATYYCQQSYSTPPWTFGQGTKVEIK
Turning to B2, the results for the EC50 (in experiment [3]; in the experiment with mouse FLT3L on CHO cells [6]) were 0.66 nM and 0.11 nM, respectively. The “maximum occupancy (% relative to FLT3-Fc)” value in experiment [3] was 28%; with mouse FLT3L on CHO cells [6], 51%. Besides, the entries for the “IC50 (nM), inhibition of FLT3 downregulation on RS4;11 cells” value (“IC50 (nM), inhibition” for short) (in [4]; with mouse soluble FLT3L; in [5]) were 6020 nM, 354 nM and 245 nM, respectively. The “IC50 (nM) against 0.476 nM FLT3L, ERK phosphorylation in CD133+ stem cells” value in experiment [7] stood at 25 nM.

B3: Dyax5 Fab (Fab, V domains shown)
VH: B2 VH
VL: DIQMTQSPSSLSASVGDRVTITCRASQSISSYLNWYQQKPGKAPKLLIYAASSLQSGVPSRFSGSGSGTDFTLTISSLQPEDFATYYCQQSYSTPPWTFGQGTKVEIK
Consider B3, for which the Kd in experiment [1] is 22 nM. In addition, in experiment [2], the koff stood at 0.00501 s⁻¹ and the kon was 228000 M⁻¹ s⁻¹.

B4: CAT8 antibody (IgG1 TM format) (antibody, V domains shown)
VH: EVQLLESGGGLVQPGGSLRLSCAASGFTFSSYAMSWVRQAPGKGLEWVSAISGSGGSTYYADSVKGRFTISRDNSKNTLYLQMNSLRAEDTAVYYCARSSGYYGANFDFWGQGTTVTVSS
VL: QSVLTQPPSASGTPGQRVAISCSGSSSNIGSGYVYWYQQVPGTAPTLLIHRNNQRPSGVPDRFSGSKSGTSASLAISGLRSEDEADYYCAAWDDSLSGYVFGTGTKVTV
notes: Human antibody from phage display
Consider B4, for which the binding result in [8] is listed as “no binding (tested: about 0.3 uM)”; in experiment [9] it was “no binding (tested: about 0.3 uM)”; in the experiment with mouse FLT3L on CHO cells [10] it was “no binding (tested: x = -7.2 (x axis without title or unit))”. In addition, the concentration for a half-maximal effect (EC50) (as a rule, the midpoint of the concentration-response curve) was 0.08 nM in experiment [3] and 9 nM in experiment [11]. Besides, the entries for the “maximum occupancy (% relative to FLT3-Fc)” value in experiment [3] and in experiment [11] were 60% and 32%, respectively. Moreover, the “IC50 (nM), inhibition” value in [4] was 3000 nM; in experiment [5], 43.5 nM.

B5: CAT8 Fab (Fab, V domains shown)
VH: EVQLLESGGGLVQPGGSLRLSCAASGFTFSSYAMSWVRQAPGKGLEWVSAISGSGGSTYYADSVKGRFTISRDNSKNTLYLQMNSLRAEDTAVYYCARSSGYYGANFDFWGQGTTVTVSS
VL: B4 VL
As to B5, in experiment [1], the Kd is 8.85 nM. In experiment [2], the koff was 0.00556 s⁻¹ and the kon is 628000 M⁻¹ s⁻¹.

B6: CAT26 antibody (IgG1 TM format) (antibody, V domains shown)
VH: EVQLLESGGGLVQPGGSLRLSCAASGFTFSSYAVSWVRQAPGKGLEWVSAISGSGGSTYYADSVKGRFTISRDNSKNTLYLQMNSLRAEDTAVYYCVKDAYGSSWYFYYFDYWGQGTMVTVSS
VL: QSVLTQPPSASGTPGQRVTISCSGSSSNIGINPVNWYQQLPGTAPKVLIYSDKYRPSGVADRFSGSKSGTSASLAISGLQSEDEADYFCAAWDDSLNGRVFGTGTKLTVL
For the molecule B6, the binding result was “no binding (tested: about 0.3 uM)” in experiment [8], “no binding (tested: about 0.3 uM)” in [9] and “no binding (tested: x = -7.2 (x axis without title or unit))” in the experiment with mouse FLT3L on CHO cells [10]. Further, the EC50 in experiment [3] was determined as 0.19 nM; in experiment [11], 1.1 nM. Moreover, the “maximum occupancy (% relative to FLT3-Fc)” value in [3] is 46%; in experiment [11], 96%. Moreover, the entries for the “IC50 (nM), inhibition” value in experiment [4] and in experiment [5] were 2580 nM and 618 nM, respectively.

B7: CAT26 Fab (Fab, V domains shown)
VH: B6 VH
VL: B6 VL
Take B7: the Kd in experiment [1] turned out to be 4.37 nM. In addition, in [2], the koff came to 0.00084 s⁻¹ and the kon was found to be 191000 M⁻¹ s⁻¹.

B8: AM40 (MEDI1116) antibody (antibody, V domains shown)
VH: QVQLVQSGAEVKKPGSSVKVSCKASGGTFSSYALSWVRQAPGQGLEWMGTRPPTSRTASYAQKFQGRVTITVDESTSTGYMELSSLRSEDTAVYYCASNDFVYGSYRFWGQGTTVTVSS
VL: NFMLTQPHSVSESPGKTVTISCTRTSGNIAGYFVQWYQQRPGSSPTTVIYEDYQRPSGVPDRFSGSIDSSSNSASLTISGLKTEDEADYYCQSYDDYRRAAFGGGTKLTVLG
In experiment [12], B8 showed a Kd of 0.063 nM, a koff of 0.00017 s⁻¹ and a kon of 2.66e+06 M⁻¹ s⁻¹. For the same molecule, in [13], the Kd turned out to be 0.17 nM, the koff stood at 0.00018 s⁻¹ and the kon turned out to be 1.09e+06 M⁻¹ s⁻¹.

B9: SC4017 antibody (antibody, V domains shown)
VH: B8 VH
VL: B8 VL with N28W
In [12], B9 returned a Kd of 0.0088 nM, a koff of 5e-05 s⁻¹ and a kon of 5.84e+06 M⁻¹ s⁻¹. Moreover, in experiment [13], the Kd turned out to be 0.037 nM, the koff was determined as 5e-05 s⁻¹ and the kon was determined as 1.45e+06 M⁻¹ s⁻¹.
